Source: the supplement of paper PMC6757056
± gives the standard deviation of the averaged measurements.

B1: library; a variant is named by its letters at N, in order (parent)
chain: GCUGUCACCGGUGUAUUACCCUAGUGGUCGACCGGUCUGAUGAGUCUNNNNNNAGACGAAACAGC

Columns and labels:
hypoxanthine [1] = variants of: B1; experiment: normalized RNA/DNA level with ligand (relative to sTRSVctl = 100) (log10 (% of sTRSVctl)); ligand: hypoxanthine (xanthine aptamer); higher = less ribozyme self-cleavage, higher mRNA level; settings: ligand concentration (+) RNA-Seq: 5 mM, HEK293T, reporter: mCherry (pCS4076), ligand present: yes
Method in brief: (§1)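 Library plasmids encoding reporter-linked ribozyme switches (mCherry, or eGFP for some folinic acid experiments) were transfected into HEK293T at 4 µg per 6-well well. Ligand, when used, was added 1 h before transfection. Total RNA was extracted with EDTA 72 h later, then reverse-transcribed, amplified, barcoded and sequenced. RNA level was RNA reads over DNA reads, divided by a spiked-in non-cleaving control (or the top 25 sequences), ×100, log10; only sequences with ≥100 DNA reads were kept.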

hypoxanthine [2] = variants of: B1; experiment: normalized RNA/DNA level without ligand (relative to sTRSVctl = 100) (log10 (% of sTRSVctl)); ligand: hypoxanthine (xanthine aptamer); higher = less ribozyme self-cleavage, higher mRNA level; settings: HEK293T, reporter: mCherry (pCS4076), ligand present: no
Method in brief: as §1

Row | Variant | normalized RNA/DNA level with ligand (log10) (hypoxanthine [1]) | normalized RNA/DNA level without ligand (log10) (hypoxanthine [2])
1 | GCUGUCACCGGUGUAUUACCCUAGUGGUCGACCGGUCUGAUGAGUCUCGAUCAAGACGAAACAGC | 1.9299 ± 0.00072 | 1.7 ± 0.048
2 | GCUGUCACCGGUGUAUUACCCUAGUGGUCGACCGGUCUGAUGAGUCUGGAUCAAGACGAAACAGC | 1.96 ± 0.04 | 1.84 ± 0.037
3 | GCUGUCACCGGUGUAUUACCCUAGUGGUCGACCGGUCUGAUGAGUCUUGAUCAAGACGAAACAGC | 1.98 ± 0.031 | 1.899 ± 0.0037
4 | GCUGUCACCGGUGUAUUACCCUAGUGGUCGACCGGUCUGAUGAGUCUAGAUCAAGACGAAACAGC | 1.97 ± 0.049 | 1.81 ± 0.045
5 | GCUGUCACCGGUGUAUUACCCUAGUGGUCGACCGGUCUGAUGAGUCUCGAUCCAGACGAAACAGC | 2.013 ± 0.0062 | 1.898 ± 0.0043
6 | GCUGUCACCGGUGUAUUACCCUAGUGGUCGACCGGUCUGAUGAGUCUGGAUCCAGACGAAACAGC | 1.96 ± 0.049 | 1.95 ± 0.018
7 | GCUGUCACCGGUGUAUUACCCUAGUGGUCGACCGGUCUGAUGAGUCUUGAUCCAGACGAAACAGC | 1.91 ± 0.087 | 1.921 ± 0.012
8 | GCUGUCACCGGUGUAUUACCCUAGUGGUCGACCGGUCUGAUGAGUCUAGAUCCAGACGAAACAGC | 1.936 ± 0.0091 | 1.874 ± 0.0045
9 | GCUGUCACCGGUGUAUUACCCUAGUGGUCGACCGGUCUGAUGAGUCUCGAUCGAGACGAAACAGC | 1.94 ± 0.027 | 1.84 ± 0.038
10 | GCUGUCACCGGUGUAUUACCCUAGUGGUCGACCGGUCUGAUGAGUCUAGAUCGAGACGAAACAGC | 1.89 ± 0.031 | 1.55 ± 0.048
11 | GCUGUCACCGGUGUAUUACCCUAGUGGUCGACCGGUCUGAUGAGUCUCGAUCUAGACGAAACAGC | 1.95 ± 0.046 | 1.877 ± 0.0033
12 | GCUGUCACCGGUGUAUUACCCUAGUGGUCGACCGGUCUGAUGAGUCUGGAUCUAGACGAAACAGC | 1.95 ± 0.051 | 1.92 ± 0.023
13 | GCUGUCACCGGUGUAUUACCCUAGUGGUCGACCGGUCUGAUGAGUCUUGAUCUAGACGAAACAGC | 2.022 ± 0.0077 | 1.939 ± 0.013
14 | GCUGUCACCGGUGUAUUACCCUAGUGGUCGACCGGUCUGAUGAGUCUAGAUCUAGACGAAACAGC | 1.94 ± 0.051 | 1.829 ± 0.015
15 | GCUGUCACCGGUGUAUUACCCUAGUGGUCGACCGGUCUGAUGAGUCUCGAUGAAGACGAAACAGC | 1.93 ± 0.018 | 1.79 ± 0.057
16 | GCUGUCACCGGUGUAUUACCCUAGUGGUCGACCGGUCUGAUGAGUCUCGAUGCAGACGAAACAGC | 1.9 ± 0.07 | 1.829 ± 0.0038
17 | GCUGUCACCGGUGUAUUACCCUAGUGGUCGACCGGUCUGAUGAGUCUUGAUGCAGACGAAACAGC | 1.95 ± 0.059 | 1.852 ± 0.014
18 | GCUGUCACCGGUGUAUUACCCUAGUGGUCGACCGGUCUGAUGAGUCUAGAUGCAGACGAAACAGC | 1.96 ± 0.07 | 1.72 ± 0.072
19 | GCUGUCACCGGUGUAUUACCCUAGUGGUCGACCGGUCUGAUGAGUCUUGAUGGAGACGAAACAGC | 1.92 ± 0.062 | 1.51 ± 0.064
20 | GCUGUCACCGGUGUAUUACCCUAGUGGUCGACCGGUCUGAUGAGUCUCGAUGUAGACGAAACAGC | 1.98 ± 0.04 | 1.878 ± 0.016
21 | GCUGUCACCGGUGUAUUACCCUAGUGGUCGACCGGUCUGAUGAGUCUGGAUGUAGACGAAACAGC | 1.93 ± 0.033 | 1.746 ± 0.0056

Row | Variant | normalized RNA/DNA level with ligand (log10) (hypoxanthine [1]) | normalized RNA/DNA level without ligand (log10) (hypoxanthine [2])
22 | GCUGUCACCGGUGUAUUACCCUAGUGGUCGACCGGUCUGAUGAGUCUUGAUGUAGACGAAACAGC | 1.91 ± 0.02 | 1.67 ± 0.022
23 | GCUGUCACCGGUGUAUUACCCUAGUGGUCGACCGGUCUGAUGAGUCUGGAUUAAGACGAAACAGC | 1.94 ± 0.04 | 1.83 ± 0.057
24 | GCUGUCACCGGUGUAUUACCCUAGUGGUCGACCGGUCUGAUGAGUCUUGAUUAAGACGAAACAGC | 1.91 ± 0.087 | 1.88 ± 0.049
25 | GCUGUCACCGGUGUAUUACCCUAGUGGUCGACCGGUCUGAUGAGUCUAGAUUAAGACGAAACAGC | 1.91 ± 0.024 | 1.8 ± 0.031
26 | GCUGUCACCGGUGUAUUACCCUAGUGGUCGACCGGUCUGAUGAGUCUGGAUUCAGACGAAACAGC | 1.98 ± 0.041 | 1.94 ± 0.0086
27 | GCUGUCACCGGUGUAUUACCCUAGUGGUCGACCGGUCUGAUGAGUCUCGAUUGAGACGAAACAGC | 1.92 ± 0.045 | 1.922 ± 0.0055
28 | GCUGUCACCGGUGUAUUACCCUAGUGGUCGACCGGUCUGAUGAGUCUUGAUUGAGACGAAACAGC | 1.97 ± 0.043 | 1.763 ± 0.0098
29 | GCUGUCACCGGUGUAUUACCCUAGUGGUCGACCGGUCUGAUGAGUCUAGAUUGAGACGAAACAGC | 1.88 ± 0.042 | 1.47 ± 0.022
30 | GCUGUCACCGGUGUAUUACCCUAGUGGUCGACCGGUCUGAUGAGUCUGGAUUUAGACGAAACAGC | 1.99 ± 0.024 | 1.89 ± 0.02
31 | GCUGUCACCGGUGUAUUACCCUAGUGGUCGACCGGUCUGAUGAGUCUAGAUUUAGACGAAACAGC | 1.92 ± 0.021 | 1.893 ± 0.011
32 | GCUGUCACCGGUGUAUUACCCUAGUGGUCGACCGGUCUGAUGAGUCUAGCAAAAGACGAAACAGC | 1.92 ± 0.047 | 1.7327 ± 0.00011
33 | GCUGUCACCGGUGUAUUACCCUAGUGGUCGACCGGUCUGAUGAGUCUCGCAACAGACGAAACAGC | 1.928 ± 0.01 | 1.88 ± 0.024
34 | GCUGUCACCGGUGUAUUACCCUAGUGGUCGACCGGUCUGAUGAGUCUUGCAACAGACGAAACAGC | 1.963 ± 0.0065 | 1.83 ± 0.022
35 | GCUGUCACCGGUGUAUUACCCUAGUGGUCGACCGGUCUGAUGAGUCUCGCAAGAGACGAAACAGC | 1.847 ± 0.014 | 1.78 ± 0.1
36 | GCUGUCACCGGUGUAUUACCCUAGUGGUCGACCGGUCUGAUGAGUCUCGCAAUAGACGAAACAGC | 1.94 ± 0.015 | 1.77 ± 0.036
37 | GCUGUCACCGGUGUAUUACCCUAGUGGUCGACCGGUCUGAUGAGUCUUGCAAUAGACGAAACAGC | 1.9506 ± 0.00045 | 1.807 ± 0.01
38 | GCUGUCACCGGUGUAUUACCCUAGUGGUCGACCGGUCUGAUGAGUCUCGCACAAGACGAAACAGC | 1.92 ± 0.024 | 1.738 ± 0.016
39 | GCUGUCACCGGUGUAUUACCCUAGUGGUCGACCGGUCUGAUGAGUCUGGCACAAGACGAAACAGC | 1.885 ± 0.002 | 1.86 ± 0.03
40 | GCUGUCACCGGUGUAUUACCCUAGUGGUCGACCGGUCUGAUGAGUCUUGCACAAGACGAAACAGC | 1.934 ± 0.019 | 1.843 ± 0.0094
41 | GCUGUCACCGGUGUAUUACCCUAGUGGUCGACCGGUCUGAUGAGUCUCGCACCAGACGAAACAGC | 1.93 ± 0.093 | 1.9 ± 0.028
42 | GCUGUCACCGGUGUAUUACCCUAGUGGUCGACCGGUCUGAUGAGUCUGGCACCAGACGAAACAGC | 1.92 ± 0.06 | 1.85 ± 0.021
